The record followed here is patent US20240254227A1 (Alector, published 2024).

B1: anti-CD300LB antibody CD-11 (antibody, V domains shown)
VH: QIQLVQSGPEVKKPGETVKISCKASGYTLTDYSMHWVMQTPGTGLKWMAWMNTETGEPTYADDFKGRFAFSLETSAGTAYLQIDNLKNEDTATYFCATYGKSYGMKYWGQGTSVTVSS
VL: DIVLTQSPPSLAVSLGQRATISCRATKSVSPYLHWYQQTPGQPPKLLIYLASNLDSGVPARFSGSGSGTDFTLNIHPVEEEDAATYYCQHNKELPPTFGGGTRLEIK
B2: anti-CD300LB antibody CD-12 (antibody, V domains shown)
VH: QIQLVQSGPELKKPGETVKISCKASGYTFTDYSMHWVRQAPGKGLKWMAWINTETGEATHADDFKGRFDFSLDTSASTAYLQIKNLKNEDTGIYFCVCYGSSYGMDYWGQGTSVTVSS
VL: DIVLTQSPASLPVSLGQRATISCRASKSVRTSGASYMHWYQQKPGQPPKLLIYLASNLKSGVPTRFSGSGSGTDFTLNIHPVEEEDAATYYCQHNREVPPTFGGGTKLEIK
B3: anti-CD300LB antibody CD-16 (antibody, V domains shown)
VH: QIQLVQSGPELKKPGETVKISCKASGYTFTDYSMHWVKQAPGKGLKWMAWINTETGEPTYADDFRGRFAFSLETSGRTAYLEINNLRNEDTATYFCVTYGSSYGMAYWGQGTSVTVSS
VL: B2 VL with P12A, R30S, T31R, A34Y, M37L, N57K, K59E, T64A, E84A, V98I
B4: anti-CD300LB antibody CD-15 (antibody, V domains shown)
VH: QIQLVQSGPELKKPGETVKISCQVSGYTFTDYSMHWLKQAPGKGLKWMAWINTETGESTYTDEFKGRFVFSLETSVRTAYLKINNLKNEDTATYFCGTYGSSYGMAYWGQGTSVTVSS
VL: B2 VL with R30S, A34S, M37L, N57K, K59E, T64A, S67R
B5: anti-CD300LB antibody CD-17 (antibody, V domains shown)
VH: QIQLVQSGPELKKPGETVKISCKASGYTLTDYSMHWVKQAPGKGLKWMGWINTETGEPRYGDDFKGRFAFSLETSASSAYLQINNLKNDDTATYFCATYGRSYGMDFWGQGTSVTVSS
VL: B2 VL with P12A, R30S, T31P, A34H, T64A, E85G, V98L, T106S
B6: anti-CD300LB antibody CD-18 (antibody, V domains shown)
VH: DVQLQESGPDLVKPSQSLSLTCTVTGYSITSGYSWHWIRQFPDNKLEWMGYILSRGDTNFNPSLKSRISITRSTSNNQFFLHFNSVTTEDTATYYCARDFFDYWGQGTTLTVSS
VL: DVLMTQTPLSLPVSLGDQASISCRSSQSIVHSNGNTYLEWYLQKPGQSPKLLIYKVSDRFSGVPDRFSGSGSGTDFTLKISRVEAEDLGVYFCFQGSHVPYTFGGGTKLEIK
B7: anti-CD300LB antibody CD-10 (antibody, V domains shown)
VH: QVQLQQSGPELVRPGVSVKISCKGSGYTFTDYAMHWVKQSHVRSREWIGVIGTYNGHTNYNQKFKGKATMTVDKSSSTAYLELARLTSEDSAIYYCARSGSYYYSMDYWGQGTSVTVSS
VL: QIVLTQSPAIMSASPGEKVTMTCSASSSVNYMHWYQQKSGTSPKRWIYDTSKLSSGVPARFSGSGSGTSYSLTISTMEAEDAATYYCQQWSSNPPMTFGGGTKLEIK
B8: anti-CD300LB antibody CD-13 (antibody, V domains shown)
VH: QIQLVQSGPELKKPGETVKISCKASGYTFTDYSMHWVKQAPGKGFKWMAWINTETGAPTHADDFRGRFAFSLETSASTAFLQISNLKTEDTATYFCVTFGKSYGMNYWGQGTSVTVSS
VL: B2 VL with P12S, R30G, T31S, A34S, M37L, K59E, T64A, D74E, R96A
B9: anti-CD300LB antibody CD-14 (antibody, V domains shown)
VH: QIQLVQSGPELKKPGETVKISCKASGYTFTDYSLHWVKQTPEKNLKWMAWINTETGAPTYADDFKGRFAFSLETSSNTAYLLINNLKNEDTATYFCALTMVNYWGQGTTLTVSS
VL: DIVMTQSQKFMSTSVGDRVSVTCKASQNVGIRVAWHQQKPGQSPKTLIYSTSYRYSGVPDRFTGSGSGTEFILTISNVQSEDLAEYFCQQYNSYPYTFGGGTKLEIK

Residue numbers refer to the chain shown, from its start.

The first test concerns the target T1, murine CD300LB on wild type mouse bone marrow macrophages (mouse, UniProt Q3U497 18-209).
T1 construct: Endogenous receptor on primary cells; also called mCD300LB; Wt BMM
T1 sequence: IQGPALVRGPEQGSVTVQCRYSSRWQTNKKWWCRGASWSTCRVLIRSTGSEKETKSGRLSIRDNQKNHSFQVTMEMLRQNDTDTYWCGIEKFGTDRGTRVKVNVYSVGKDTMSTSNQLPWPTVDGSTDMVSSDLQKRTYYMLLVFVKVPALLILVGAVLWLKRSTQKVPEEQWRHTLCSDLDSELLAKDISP
Description: flow cytometry, wild type mouse bone marrow macrophages, 10 ug/mL, isotype subtracted. The procedure: To further examine the specificity of the anti-CD300LB antibodies to muCD300LB, bone marrow macrophages (BMM) from wild type (WT) and CD300LB knockout mice (KO) were analyzed for antibody binding by flow cytometry. Bone marrow from these mice was harvested and plated into three 20 cm PETRI dishes in complete media containing 50 ng/mL murine M-CSF (Peprotech). Media was changed every three days until day 6, when cells were harvested. Cells were detached with PBS 3 mM EDTA, washed and counted and plated at 100,000 cells/well in a 96 well plate. Cells were incubated with murine Fc block (Clone 2.4G2, BD) then with 10 μg/mL anti-CD300LB antibodies for 30 minutes on ice. […] Cells were washed twice more with 150 μL FACS buffer then resuspended to 100 μL in FACS buffer analyzed using a BD Canto II flow cytometer to calculate the geometric MFI minus the gMFI of the isotype control. Dead cells were stained with live/dead staining kit (Invitrogen).
On the technique in general: In flow cytometry, cells or beads pass a laser one at a time.
On to B1, for which the gMFI came to 349 gMFI.
On the same count and under the same terms, the figure for B2 is 413 gMFI; for B3 it is 233 gMFI.
Turning to B4, the gMFI came to 256 gMFI.
B5: the gMFI was determined as 1230 gMFI.
Turning to B6, the gMFI amounted to 1290 gMFI.
B7 had a gMFI of 192 gMFI.

The target of another test is T2, murine CD300E-Fc (mouse).
T2 construct: mouse IgG2a-Fc fusion (R&D Systems); the entry is the whole fusion chain; also called mCD300E; Mouse CD300E-Fc
T2 chain: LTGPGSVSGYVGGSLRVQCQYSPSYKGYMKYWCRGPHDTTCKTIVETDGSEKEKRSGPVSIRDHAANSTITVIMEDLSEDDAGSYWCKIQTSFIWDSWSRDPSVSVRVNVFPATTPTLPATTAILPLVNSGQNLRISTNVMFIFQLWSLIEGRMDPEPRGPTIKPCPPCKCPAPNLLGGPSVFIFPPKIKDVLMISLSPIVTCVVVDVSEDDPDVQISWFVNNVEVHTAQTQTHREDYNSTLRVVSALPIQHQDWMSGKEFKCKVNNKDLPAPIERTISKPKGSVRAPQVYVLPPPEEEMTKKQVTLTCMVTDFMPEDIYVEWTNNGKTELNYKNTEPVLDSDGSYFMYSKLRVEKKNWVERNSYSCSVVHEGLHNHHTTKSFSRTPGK
Kind of test: SPR (Carterra LSA), antibody immobilised. From the text:
In addition to the screening of antibodies for cross-reactivity by FACS analysis, surface plasmon resonance (SPR) analysis was used to determine the binding of antibodies to recombinant huCD300 and muCD300 family members (orthologs) conjugated to an Fc (human CD300A-Fc SEQ ID NO:144; human CD300LB-Fc SEQ ID NO:145; human CD300C-Fc SEQ ID NO: 146; human CD300D-Fc SEQ ID NO: 147; human CD300E-Fc SEQ ID NO: 148; human CD300F-Fc SEQ ID NO: 149; murine CD300A-Fc SEQ ID NO: 150; murine CD300LB-Fc SEQ ID NO:151; murine CD300C-Fc SEQ ID NO: 152; murine CD300D-Fc SEQ ID NO: 153, and murine CD300E-Fc SEQ ID NO: 154).
Binding of mouse anti-CD300LB IgG1 antibodies of the present disclosure to human and murine CD300 orthologs were evaluated by surface plasmon resonance (SPR) using a Carterra LSA instrument (Carterra, Salt Lake City, UT). […] A HC200M sensor chip (Carterra) was activated using the single channel flow cell with a 7-minute injection of a 1:1:1 mixture of 100 mM MES pH 5.5, 100 mM sulfo-NHS, 400 mM EDC (all reconstituted in MES pH 5.5; 100 μL of each mixed in vial immediately before running assay). After switching to the multi-channel array flow cell, the antibodies were injected over the activated chip in a 96-spot array for 10 minutes. The remaining unconjugated active groups on the chip were then blocked by injecting 1M Ethanolamine pH 8.5 (Carterra) for 7 minutes using the single channel flow cell. After priming with running buffer (HBS-TE, Carterra) with 0.5 mg/ml BSA (Sigma), the immobilized anti-CD300LB antibodies were tested for their ability to bind human and mouse recombinant CD300LB extracellular domains. Human CD300 family members and mouse CD300A were hIgG1-Fc fusions, while mouse CD300LB, mouse CD300C, mouse CD300D, and mouse CD300E were mouse IgG2a-Fc fusions (R&D Systems). Binding was assessed by injecting each analyte over the entire antibody array using the single channel flow cell. CD300 analytes were diluted to 300 nM or 600 nM in running buffer and injected in series without regeneration. Two or three buffer blanks were run between each mouse or human ortholog, respectively. Data were processed and analyzed using NextGenKIT high-throughput kinetics analysis software (Carterra).
For B1, the binding result is on record as “no binding (tested: 300 nM or 600 nM)”.
B2: the binding result is on record as “no binding (tested: 300 nM or 600 nM)”.
As to B3, the binding result is “no binding (tested: 300 nM or 600 nM)”.
With B8, the binding result is on record as “no binding (tested: 300 nM or 600 nM)”.
Take B4: the binding result was “no binding (tested: 300 nM or 600 nM)”.
Regarding B5, the binding result was “no binding (tested: 300 nM or 600 nM)”.
As for B6, the binding result is “no binding (tested: 300 nM or 600 nM)”.
With B7, the binding result is listed as “no binding (tested: 300 nM or 600 nM)”.
For the molecule B9, the binding result was “no binding (tested: 300 nM or 600 nM)”.

A further test addresses T3, recombinant murine CD300LB overexpressed on BaF/3 cells (mouse, UniProt Q3U497 18-209).
T3 sequence: T1 sequence
Description: cell-based or functional assay.
Consider B1, for which the “Luminescence in BaF/3” value is 22400.
Regarding B2, the “Luminescence in BaF/3” value turned out to be 22800.
On the same count and under the same terms, as for B3, the figure is 792.
Consider B8, for which the “Luminescence in BaF/3” value turned out to be 22400.
With B4, the “Luminescence in BaF/3” value was 23000.
Same read-out and setting: as for B5, the figure is 24700; as for B6, 13000; as for B9, 19700.

In a further test the target is T4, recombinant human CD300LB overexpressed on Jurkat cells (human, UniProt A8K4G0 18-201).
T4 construct: also called huCD300LB; huCD300LB-expressing Jurkat cells
T4 sequence: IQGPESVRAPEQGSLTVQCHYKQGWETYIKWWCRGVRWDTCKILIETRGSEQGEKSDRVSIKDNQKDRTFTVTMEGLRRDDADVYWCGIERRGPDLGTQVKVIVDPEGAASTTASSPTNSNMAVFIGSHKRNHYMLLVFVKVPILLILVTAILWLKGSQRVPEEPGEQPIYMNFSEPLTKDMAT
Kind of test: flow cytometry, stable Jurkat cells, supernatant or 10 ug/mL, isotype subtracted. The procedure:
(§1) Purified anti-CD300LB antibodies of the present disclosure were also evaluated for species cross-reactivity to mouse and human CD300LB stably expressed in Jurkat cells (generation of which is described above). Cells were counted and labeled with 200 nM CFSE, 500 nM VioBlue, or a combination of the two to discriminate between human CD300LB, Parental cells and mouse CD300LB. Cells were washed thoroughly with PBS containing 2% fetal bovine serum then resuspended at a total of 240,000 cells per well. Hybridoma supernatants (100 L) or purified antibodies at 10 μg/mL were added and incubated for one hour before the cells were washed again and stained with an APC-labeled anti-human or anti-mouse secondary. Cells were then analyzed using a BD FACSCanto II. Antibodies were analyzed for binding to mouse or human CD300LB by FlowJo software by gating on live cells, then the APC gMFI calculated for each labeled population by subtraction of the gMFI of the appropriate isotype control.
Regarding B1, the gMFI worked out at 50 gMFI.
Turning to B8, the gMFI was 324 gMFI.
The same measure, in the same setting: the figure for B5 is 13 gMFI.
As for B6, the gMFI turned out to be 114 gMFI.
In the case of B7, the gMFI was 18 gMFI.
The same measure, in the same setting: as for B9, the figure is 59 gMFI.

A further test has as its target T5, murine CD300LB stably expressed on Jurkat cells (mouse, UniProt Q3U497 18-209).
T5 construct: also called muCD300LB; mouse CD300LB
T5 sequence: T1 sequence
Described as above. On the procedure: as §1
Consider B1, for which the gMFI stood at 320 gMFI.
Still for that read-out and setting: the figure for B3 is 504 gMFI; for B8 it is 1190 gMFI.
Same read-out and setting: the figure for B4 is 506 gMFI.
For B5, the gMFI worked out at 1680 gMFI.
For the molecule B6, the gMFI is 643 gMFI.
Consider B7, for which the gMFI worked out at 284 gMFI.
On to B9, for which the gMFI amounted to 950 gMFI.
